Results taken from US20130109619A1 (UNITED STATES OF AMERICA AS REPRESENTED BY THE SECRETARY …, published 2013).
Non-standard residues stand in square brackets, D forms with d. Fluo = fluorescein on the Cys side-chain sulfur; Nle = CCCC[C@H](N)C(=O)O

Target: recombinant Epstein Barr virus (EBV) IL10 (Epstein Barr virus, UniProt P03180 24-170)
Test: concentration-dependent changes in fluorescence intensity of the environment-sensitive fluorescein label on the peptide

Sequence of recombinant Epstein Barr virus (EBV) IL10 (P03180 24-170 limits assumed): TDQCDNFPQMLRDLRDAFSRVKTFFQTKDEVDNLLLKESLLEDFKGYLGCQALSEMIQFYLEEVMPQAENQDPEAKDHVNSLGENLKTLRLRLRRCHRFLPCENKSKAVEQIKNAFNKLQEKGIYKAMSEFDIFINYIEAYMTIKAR

B1: IL10-HF-6 (peptide)
peptide: Ac-C(Fluo)YKA[Nle]SEFDIFINYIEAY[Nle]T[Nle]KIRN-NH2
notes: also called fluorescent derivative of helix F of IL10; helix F analog
Kd: 50 nM
